Experimental data from patent US20110059504A1.

T1: human myostatin (human) (UniProt O14793)
T1 sequence (biotinylated in selections and radioactive assays (site not stated), looked up): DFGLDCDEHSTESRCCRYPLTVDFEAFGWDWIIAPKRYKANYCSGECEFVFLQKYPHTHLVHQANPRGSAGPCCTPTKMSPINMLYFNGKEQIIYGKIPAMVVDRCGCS


Columns and labels:
human myostatin (human) [1] = molecular target: T1, human myostatin (human)
human myostatin (human) [2] = molecular target: T1, human myostatin (human); assay: cell-based or functional assay

Row | Binder | EC50 (read off the curve); blocking of myostatin-induced inhibition of MPC-11 proliferation (human myostatin (human) [1]) [nM] | MPC-11 cell proliferation assay, IC50 (human myostatin (human) [2]) [nM]
1 | M3-1, E. coli-produced (designed binder) MTIPEIIIKVRGTQVVGSDMTVIVEFTNPLKETLRNVWVHLDGPGVTRPMKKMFRAIPMNHKVQWEEVVRPWVSGHRKLIASMPQLFHIHVYGELDVQIQRRHHHHHH | 30 | –
2 | M07, E. coli-produced (designed binder) MTIPEIIIKVRGTQVVGSDMTVIVEFTNPFKETLRSVWVHLDGPGVTRPMKKMFREIPPKTTVQWEEVVRPWVSGHRKLIARCQLLPWHVYGELDVQIQRRHHHHHH | – | 150 to 200

Next, values leading:

Row | EC50 (read off the curve); blocking of myostatin-induced inhibition of MPC-11 proliferation (human myostatin (human) [1]) [nM] | MPC-11 cell proliferation assay, IC50 (human myostatin (human) [2]) [nM] | Binder
3 | – | 150 to 200 | M56, E. coli-produced (designed binder) MTIPEIIIKVRGTQVVGSDMTVIVEFSNPFKETLRNVWVHLDGPGVTRPMKKMFSEIRPNSTVQWEEVVRPWVSGHRKLIARCSLSPWHVYGELDVQIQRRHHHHHH
4 | – | 150 to 200 | M71, E. coli-produced (designed binder) MTIPEIIIKVRGTQVVGSDMTVIVEFTNPFKETLRSVWVHLDGPGVTRPMKKMFSEIRPNSTVQWEEVVRPWVSGHRKLIARCSLSPWHVYGELDVQIQRRHHHHHH
